According to the nanobody polyreactivity screen of Harvey et al. (2022):

Assay: yeast display, Sf9 membrane polyspecificity reagent, FACS + sequencing; frameworks hold sequencing errors
How it was run: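 A nanobody's polyreactivity label depends on the gate it was sorted from. Yeast display cells were stained with 10% biotinylated, detergent-solubilized Sf9 membrane reagent for 1 hour at 4 °C, enriched on streptavidin microbeads and sorted by FACS. The low and high (top ~1%) gates were set on anti-HA fluorescence for expression and streptavidin fluorescence for reagent binding.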

For “QVQLVESGGGLVQAGGSLRLSCAASGRIFTPYAMGWYRQARGKEREVVAVIRDGSTYYADSVKGSFTISRDNAKNTVYLQMNSLKPEDTAVYYCRYDIWVWWSGAYDYWGQGTQVTVSS”, the “polyreactivity (PSR sort gate)” value was “low polyreactivity”.

With “QVQLVESAGGLVQAGGSLRLSCAASGNTFDPNAMGWYRQAPGKEREFVAAISTIGSSTYYADSVKGRFTISRDNAKYTVYLQMNSLNPEVTAVYYCAKGIYVVYGIDDYWGQGTQVTLSS” the “polyreactivity (PSR sort gate)” value was “low polyreactivity”.

In the case of “QVQLVESGGGLVQAGGSLRLSCAASGRTFRLYAMGWYRQAPGKERELVAAISWRGGRTYYADSVKGRFTISRDNAKNTVYLQMNSLKPEDTAVYYCAAEDGYGQYDYWGQGTQVTVSS”, the “polyreactivity (PSR sort gate)” value is reported as “high polyreactivity”.

In the case of “QVQLVESGGGLVQAGGSLRLSCAASGITFLQYAVGWYRPAPGKERELVAVISRGSRTYYADSVKGRFTISRDNAKNTVYLQMNSLKPEDTAVYYCAAVRGLAVGYDYWGQGTQVTVSS”, the “polyreactivity (PSR sort gate)” value is reported as “high polyreactivity”.

With “QVQLVESGGGLVQAGGSLRLSCAASGITFHYNAMGWYRQAPGKERELVAAISGSGSNTYYADSVKGRFTISRDNAKNTVYLQMNSLKPEDTAVYYCAKYYYSSNKWMDYWGQGTQVTVSP” the “polyreactivity (PSR sort gate)” value was “high polyreactivity”.

With “QVQLVESGGGLVQAGGSLRLSCAASGSIFGGYAMGWYRPAPGKERELVAAISKTGGTTYYADSVKGRFTISRDNAKNTVYLQMKSLKPEDTAVYYCNAPKRYSGSAYGYGYWGQGTQVTVSS” the “polyreactivity (PSR sort gate)” value was “high polyreactivity”.

In the case of “QVQLVESGGGLVQSGGSLRLTCAASGTLFYAMGWSRQAPGKERELVATITQRGGSTYYADSVKGRFTLSRDNAKNTVYLQMNSLKPEDTAVYYCAAAIYRASRRRTSYSYDYCGQGTQVTVSS”, the “polyreactivity (PSR sort gate)” value is reported as “high polyreactivity”.

In the case of “QVQLVESGGGLVQAGGSLRLSCAASGSIIQGYAMGWYRQEPGKERELVAAITGDGTTNYADSVKGRFTISRDNAKNNVYLQMNSLKPEDTAVYYCSATGLFNKFHGYGYLGQGTQVTVSS”, the “polyreactivity (PSR sort gate)” value is reported as “low polyreactivity”.

With “QVQLVDSGGGLVQAGGSLRLSCAASGRIFPGKVMGWYRQAPGKERELVAAISSSGGSTYYADSVKGRFTISRDNAKNTVYLQMNSLKPEDTAVYYCAADSSDWPYDYWGQGTQVTVSS” the “polyreactivity (PSR sort gate)” value was “low polyreactivity”.

With “QVQLVESGGGLVQAGGSLRLSCAASGYIFDLNPMGRYRQAPGKERELVAAISTGGGTYYADSVKGRFTISRDNAKNTVYLQMNSLKPEDTAVYYCAADWGYWYAEYDYWGQGTLVTVSS” the “polyreactivity (PSR sort gate)” value was “low polyreactivity”.

For “QVQLVESGGGLVQAGGSLRLSCAASGRIFSTNAMGWYRPAPGKERELVAAINWSTGSYVLRRSVKGRFTISRDTAKNTVYLQMNSLKPEDTAVYYCAATWRNPGKATQRYYYWGQGTQVTVSS”, the “polyreactivity (PSR sort gate)” value was “high polyreactivity”.

For “QVQLVESGGGLVQAGGSLRLSCAASGRIFNGYAMGWYRQAPGKERELVAAINSSGGSTYYADSVKGRFTISRDNAKNTVYLQMNSLKPEDTAVYYCARVSYHYRTYDYWGQGTQVTVSS”, the “polyreactivity (PSR sort gate)” value was “high polyreactivity”.

In the case of “QVQLVESGGGLVQAGGSLRLSCAASGLTFTRYDMGWYRQAPGKERELVASISQSGTSTHYADSVKGRFTISRDNAKNTVYLQMNSLKPEDTAVYYCAADYVSRYYVKWYRGFDYWGQGTQVTVSS”, the “polyreactivity (PSR sort gate)” value is reported as “low polyreactivity”.

In the case of “QVQRVESGGGLVQAGGSLRLRCAASGSILYHNTMGWYIQAPGKEREFVASISANGGSTYYADSVKGRFTISRDNAKNTVYLQMNSLKPEDTAVYYCAARVADYPLVGGSSYNRMEYWGQGTQVTVSS”, the “polyreactivity (PSR sort gate)” value is reported as “low polyreactivity”.

For “QVQLVESGGGLVQAGGSLRLSCAASGRTLTFYAMGWYRQAPVKERELVAAISRRAGSTYYADSVKGRFTISRDTAKNTVYLQMNSLKPEDTAVYYCAREPYSASHRYCLYRGYDYWGQGTQVTVSS”, the “polyreactivity (PSR sort gate)” value was “low polyreactivity”.

For “QVQLVESGGGLVPAGGSLRLSCAASGSIFGRNTMGWYRQAPGKERELVAAISSRGTSTYYADSVKGRFTISRDNAKNTVYLQMNSLKPEDTAVYYSAARVYPYNYWGQGTQVTVSS”, the “polyreactivity (PSR sort gate)” value was “high polyreactivity”.

In the case of “QVQLVESGGGLVQAGGSLRLSCAASGRIFAWYTMVWYRQAPGKERELVATISSSGGSTYYADSVKGLFTISRDNAKNTVYLQMNSLKPEDTAVYYCAAQYYPYSYAHRYGYCGQGTQVTVSS”, the “polyreactivity (PSR sort gate)” value is reported as “high polyreactivity”.

With “QVQLVESGGGLVQEGGSLRLSCAASGFIFRYYAMGWYRQAPGKERELVAAISSSGGSTYYADSVKGRFTISRDNAKNTVYLQMNSLKPEDTAVSYCNAYNYGYIGYGYNYWGQGTQVTVSS” the “polyreactivity (PSR sort gate)” value was “high polyreactivity”.

For “QVQLVETGGGLVQAGGSLRLSCAASGFIVAEYAMGWYIQAPGKERELVAAITRSGGRTYYADSVKGRFTISRDNAKNTVYLQMNSLKPEDTAVYYCAAGLGYPRLYYWGQGTQVTVSS”, the “polyreactivity (PSR sort gate)” value was “high polyreactivity”.

In the case of “QVQLVESGGGLVQAGGSLRLSCAASGRTFRGNDMGWYRQAPGKEWELVATITRNGGSTRYADSVKGRFTISRDNAKNTVYLQMNSLKPEDTAVYYCNARSRYFGYDYWGQGTQVTVSS”, the “polyreactivity (PSR sort gate)” value is reported as “high polyreactivity”.

In the case of “QVQLVESGGGLVQAGGSLRLSCAASGSTFAQNGLGWYRQAPGKERELVAAITSSGSTNYADSVKGRFTISRDNAKNTVYLQMNSLKPEDTAVYYCAKDVLAPYTRHDYWGQGTQVTVSS”, the “polyreactivity (PSR sort gate)” value is reported as “low polyreactivity”.

In the case of “QVQLVESGGGLVQAGGSLRLSCAASGRIFAYYTMGWYRQAPGKERELVAAITSRGGSTYYADSVKGRFTISRDNAKKTVYLQMNSLKPEDTAVYYCAALRPSNVDYWGQGTQVTVSS”, the “polyreactivity (PSR sort gate)” value is reported as “high polyreactivity”.

For “QVQLVESGGGLVQAVGSLRLSCAASGRTSPRNAMGWYRQAPGKERELVAAINRTGGTTYYSDSVKGRFTISRDNAKNTVYLQMNSLIPEDTAVYYCAADVWVSTSGDWFRYDYWGQGTQVTVSS”, the “polyreactivity (PSR sort gate)” value was “high polyreactivity”.

With “QVQLVESGGGLVQAGGSLRLSCDASGFIFYYNAMGWYRQAPGKESELVAGISWDGSTYYADSVKGRFTISRDNAKNTVYLQMNSLKPEETAVYYCAAALLDDYFDLFIFGYWGQGTQVTVSS” the “polyreactivity (PSR sort gate)” value was “low polyreactivity”.

For “QVQLVESGGGLVQAGGSLRLSCAASGSTFGYYTMGWYSQAPGKEWELVAAITWSGGSTYYADSVKGRFTISRDNAKNTASLQMNSLKPEDTAVYYCNTDQDLVRSYDYWGQGTQVTVSS”, the “polyreactivity (PSR sort gate)” value was “low polyreactivity”.

With “QVQLVESGGGLVQAGGSLRLSCAASGSILAYNAMGWYRQAPGKERELVASITTSGGSTYYADSVKGRFTISRDNAKNTVYLQMNSLKPEDTAVYYCNAEYWLGRWLRYGYWGQGTQVTVSS” the “polyreactivity (PSR sort gate)” value was “high polyreactivity”.

In the case of “QFQLVESGGGLVQAGGSLRLSCAASGSTIIKNAMGWYRQAPGKERELVAAINWSVTRTYYADSVKGRFTISRDNAKNTVYLQMNSLKPEDTAVYYCAKVIARFVRYDYWGQGTQVTVSS”, the “polyreactivity (PSR sort gate)” value is reported as “high polyreactivity”.

For “QVQLVESGGGLVQAGGSLRLSCAASGRTFYRYAMGSYRQAPGKEREFVAVISTDGSSTYYADSVKGRFTISRDNAKNTVYLQMNSLKPEDTAVYYCNKYVYGHKYGYRYSGVQDYYYWGQGTQVTVSS”, the “polyreactivity (PSR sort gate)” value was “high polyreactivity”.

For “QVQLVESGGGLVQAGGSLRLSCAASGSIFGTYAMGWYRQALGKERELVASIRFNGRTFYADSVKGRFTISRDNAKNTVYLQMNSLKPEDTAVYYCAAQTWYGFPNYYWGQGTQVTVSS”, the “polyreactivity (PSR sort gate)” value was “high polyreactivity”.

With “QVQLVESGGGLVQAGGSLRLSCAASGFILGYNAMGWYRQAPGKERELVADITFSGGGTNYADSVKGRFTISRDNAKNSVYLQMNSLKPEDTAVYYCNAAAFSQLRVRYDYWGQGTQVTVSS” the “polyreactivity (PSR sort gate)” value was “low polyreactivity”.

For “QVQLVESGGGLVQAGGSLRLSCAASGSIFLENAMGWYRQAPGKERELVAAISRSGGSTYYADSVKGRFTISRDNAKNTVYLQMNSLKPEDTAVYYCNAYRDVYNYFFGAKYDYWGQGTQVTVSS”, the “polyreactivity (PSR sort gate)” value was “high polyreactivity”.

In the case of “QVQLVESGGGLFQAGGSLRISCAASGTFVTYMGWYRQAPGKERELVAAIRNGGSTNYADSVKGRFTISRDNAKNTVYLQMNSLKPDDTAVYYCAARVTYSRGYRGGSRNKYDYWGQGTQVTLSS”, the “polyreactivity (PSR sort gate)” value is reported as “low polyreactivity”.

With “QVQLVESGGGLVQAGGSLRLSCAASGSTIVGYTMGWYRQAPGKERELVAAISRGGGSTYYADSVKGRFTISRDNAKNTVYLQMNSLKPEDTAVYYCNAYTYNRYYWGQGTQVTVSS” the “polyreactivity (PSR sort gate)” value was “high polyreactivity”.

For “QVQLVESGGGLVQAGGSLRLSCAASGFTFYQYAMGSYRQAPGKESEFVATISSGGSTYYADSVKGRFTISRDNAKNTFYLQMNSLIPEDTAVYYCAKVDFIVGYYYWGQGTQVTVSS”, the “polyreactivity (PSR sort gate)” value was “low polyreactivity”.

In the case of “QVQLVESAGGLVQAGGSLRLSCDASGSTFVINAMGWYRPAPGKERELVAAISKSGGRTYYADSVKGRFTISRDNAKNTVYLQMNSLKPEDTAVYYCAAVSQRTRYGYWGQGTQVTVSS”, the “polyreactivity (PSR sort gate)” value is reported as “high polyreactivity”.

In the case of “QVQLVESWGGLVQAGGSLRLSCAASGRIFRNYVMGWYRQAPGKERELVAAISRSGGSTYYADSVKGRFTISRDNAKNTVYLQMNSLKPEDTAVYYCNADYATRRVSLNYGYWGQGTQVTVSS”, the “polyreactivity (PSR sort gate)” value is reported as “high polyreactivity”.

In the case of “QVQLVESGGGLVQAGGSLRLSCAASGSIFDFNALGWYRQAPGKERELVAAITYSGGRTYYADSVKGRFTISRDNGKYTVYLQMNSMKPEDTAVFYCAVNSFSGHGDYWGQGTQVTVSS”, the “polyreactivity (PSR sort gate)” value is reported as “low polyreactivity”.

In the case of “QVQLVESVGGLVQAGGSLRLTCAASGSTFWLNDMGWYRQATGKERELVAAISFSGASTYYADSVKGRFTISRDNAKNTVYLQMNILKPEDTAVYYCNAGWGRAEFLSEAVFDSRMYYWGQGTQVTVSS”, the “polyreactivity (PSR sort gate)” value is reported as “low polyreactivity”.

In the case of “QVQLVESGGGLVQAGGSLRLSSAASGRTFPSYDMGWYRQAPGKERELVAAISSSGGSTYYADSVKGRFTISRDNAKNTVYLQMNSLKPEDTAVYYCAAATPSGYYYWGQGTQVTVSS”, the “polyreactivity (PSR sort gate)” value is reported as “high polyreactivity”.

With “QVQLVESGGALDQAGGRLPLSSAASGSIFRINAMRLYRQAPGKVRELVAAISWSGGSTYYADSVKGRFTISRDNAKNTVYLQMNSLKQEDTAVYYCADVVSKSSFDYWVQGTQVTVSS” the “polyreactivity (PSR sort gate)” value was “low polyreactivity”.

With “QVQLVESGGGLVQAGGSLRLICAASGSIFVGNAMGWYRQAPGKERELVAAITSSGGRTYYADSVKGRFTISRDNAKNTVYLQMNSLKPEDTAVYYCNTSRTRRFSLWAYDYWGQGTQVTVSS” the “polyreactivity (PSR sort gate)” value was “high polyreactivity”.

In the case of “QVQLVESGGGLVQAGGSLRLSSAASGRIFFHNAMGWCRQAPGKDRELVAAIRSSTGSTYYADSVKGRFTISRDNAKNTVYLQMNSLKPEDNAVYYCAARSYDKYSRRVWGLGYWGQGTQVTVSS”, the “polyreactivity (PSR sort gate)” value is reported as “high polyreactivity”.

For “QVQLVDSGGRLVQAGGSLRLSCAASGFIFGTNAMGWYRQAPGKERELVASISSTGGSTYYADSVKGRCTISRDNAKNTVYLQMNILKPEETAVYYCAADPYPEYIRYLPGVDYSGQGTQVTVSS”, the “polyreactivity (PSR sort gate)” value was “low polyreactivity”.
